Test results from article PMC2756588.

T1: Lsb4, P32793
T1 sequence (P32793 402-468, looked up): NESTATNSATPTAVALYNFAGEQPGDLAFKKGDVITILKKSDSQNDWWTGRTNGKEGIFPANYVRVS

T2: Nbp2, Q12163
T2 sequence (Q12163 103-180, looked up): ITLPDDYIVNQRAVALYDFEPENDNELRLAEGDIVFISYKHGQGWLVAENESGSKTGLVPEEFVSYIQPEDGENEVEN

T3: Sla1-2, P32790
T3 sequence (P32790 60-140, looked up): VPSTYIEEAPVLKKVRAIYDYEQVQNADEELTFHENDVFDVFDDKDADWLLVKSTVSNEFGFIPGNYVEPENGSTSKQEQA

T4: Pex13, P80667
T4 sequence (P80667 295-386, looked up): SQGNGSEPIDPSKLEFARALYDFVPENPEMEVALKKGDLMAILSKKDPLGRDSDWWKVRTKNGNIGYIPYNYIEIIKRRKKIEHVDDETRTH

T5: Boi2, P39969
T5 sequence (P39969 32-116, looked up): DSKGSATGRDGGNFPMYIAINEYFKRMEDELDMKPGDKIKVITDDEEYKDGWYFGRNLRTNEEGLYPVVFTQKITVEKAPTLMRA

T6: Lsb3, P43603
T6 sequence (P43603 385-451, looked up): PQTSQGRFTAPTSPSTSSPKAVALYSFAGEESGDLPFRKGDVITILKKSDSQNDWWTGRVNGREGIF

T7: Abp1, P15891
T7 sequence (P15891 535-592, looked up): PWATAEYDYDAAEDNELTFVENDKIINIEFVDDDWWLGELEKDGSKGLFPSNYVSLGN

T8: Boi1, P38041
T8 sequence (P38041 1-86, looked up): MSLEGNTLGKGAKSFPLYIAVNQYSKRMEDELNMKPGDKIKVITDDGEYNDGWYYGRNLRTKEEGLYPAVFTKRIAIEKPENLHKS

T9: Myo5, Q04439
T9 sequence (Q04439 1072-1160, looked up): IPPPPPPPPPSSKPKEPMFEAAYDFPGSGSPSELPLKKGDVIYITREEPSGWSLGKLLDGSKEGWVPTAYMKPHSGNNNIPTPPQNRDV

T10: Bbc1, P47068
T10 sequence (P47068 1-78, looked up): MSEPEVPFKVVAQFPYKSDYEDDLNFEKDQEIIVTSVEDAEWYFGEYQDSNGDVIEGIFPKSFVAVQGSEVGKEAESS

T11: Cyk3, Q07533
T11 sequence (Q07533 1-83, looked up): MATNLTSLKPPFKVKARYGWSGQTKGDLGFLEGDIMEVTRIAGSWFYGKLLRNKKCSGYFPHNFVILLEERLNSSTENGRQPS

T12: Pin3, Q06449
T12 sequence (Q06449 53-122, looked up): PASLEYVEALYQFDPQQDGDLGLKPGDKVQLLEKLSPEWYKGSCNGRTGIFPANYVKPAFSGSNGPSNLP

T13: Bzz1-2, P38822
T13 sequence (P38822 568-633, looked up): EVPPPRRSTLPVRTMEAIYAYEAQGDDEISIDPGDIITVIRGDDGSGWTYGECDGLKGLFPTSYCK

T14: Sla1-3, P32790
T14 sequence (P32790 344-424, looked up): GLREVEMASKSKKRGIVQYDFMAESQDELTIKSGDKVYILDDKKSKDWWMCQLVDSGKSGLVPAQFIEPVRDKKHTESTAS

T15: Hse1, P38753
T15 sequence (P38753 208-285, looked up): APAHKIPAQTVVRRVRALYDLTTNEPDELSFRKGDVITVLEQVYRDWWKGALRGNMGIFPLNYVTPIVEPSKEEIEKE

T16: Bud14, P27637
T16 sequence (P27637 247-328, looked up): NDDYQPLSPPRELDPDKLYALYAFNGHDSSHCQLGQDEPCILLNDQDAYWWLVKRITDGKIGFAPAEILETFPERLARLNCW

T17: Cdc25, P04821
T17 sequence (P04821 50-136, looked up): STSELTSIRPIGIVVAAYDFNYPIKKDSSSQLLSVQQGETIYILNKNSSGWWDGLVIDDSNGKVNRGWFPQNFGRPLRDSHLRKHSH

T18: Lsb1, P53281
T18 sequence (P53281 45-122, looked up): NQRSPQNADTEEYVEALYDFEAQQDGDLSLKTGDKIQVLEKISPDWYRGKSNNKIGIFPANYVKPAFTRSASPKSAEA

T19: Hof1, Q05080
T19 sequence (Q05080 590-669, looked up): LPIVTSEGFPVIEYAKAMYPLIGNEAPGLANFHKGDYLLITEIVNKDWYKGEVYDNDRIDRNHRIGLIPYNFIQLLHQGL

T20: Bzz1-1, P38822
T20 sequence (P38822 478-572, looked up): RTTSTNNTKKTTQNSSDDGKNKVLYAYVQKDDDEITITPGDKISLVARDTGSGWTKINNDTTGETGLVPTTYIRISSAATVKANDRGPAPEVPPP

T21: Fus1, P11710
T21 sequence (P11710 432-512, looked up): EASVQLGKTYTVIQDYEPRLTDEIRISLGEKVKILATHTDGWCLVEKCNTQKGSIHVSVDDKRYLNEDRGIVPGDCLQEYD


What follows are binders tested against Bem1-2, P29366 (assay: SPOT array). Details: median of control spots 4347.
Chain of Bem1-2, P29366 (P29366 139-227): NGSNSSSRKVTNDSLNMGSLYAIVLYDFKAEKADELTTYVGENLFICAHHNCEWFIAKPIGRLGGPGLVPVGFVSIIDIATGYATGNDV

SPOT intensity	Binder
9	GATNNAPTLPKRKNP
1	NPLPKEPRLPKRKVA
0	VATSTSPKLPPRGKQ

Each binder was assayed against T1, Lsb4, P32793 (assay: SPOT array). Details: median of control spots 397.

SPOT intensity	Binder
570	GATNNAPTLPKRKNP
288	NPLPKEPRLPKRKVA
275	VATSTSPKLPPRGKQ

These binders were tested against T2, Nbp2, Q12163 (assay: SPOT array). Details: median of control spots 357.

SPOT intensity	Binder
0	GATNNAPTLPKRKNP
0	NPLPKEPRLPKRKVA
0	VATSTSPKLPPRGKQ

What follows are binders tested against T3, Sla1-2, P32790 (assay: SPOT array). Details: median of control spots 712.

SPOT intensity	Binder
92	GATNNAPTLPKRKNP
2	NPLPKEPRLPKRKVA
0	VATSTSPKLPPRGKQ

Each binder was assayed against Sho1, P40073 (assay: SPOT array). Details: median of control spots 1148.
Chain of Sho1, P40073 (P40073 287-367): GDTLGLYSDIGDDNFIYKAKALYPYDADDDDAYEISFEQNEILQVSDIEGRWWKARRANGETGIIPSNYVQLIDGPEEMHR

SPOT intensity	Binder
2	GATNNAPTLPKRKNP
107	NPLPKEPRLPKRKVA
1	VATSTSPKLPPRGKQ

Each binder was assayed against T4, Pex13, P80667 (assay: SPOT array). Details: median of control spots 1341.

SPOT intensity	Binder
27	GATNNAPTLPKRKNP
16	NPLPKEPRLPKRKVA
87	VATSTSPKLPPRGKQ

Each binder was assayed against T5, Boi2, P39969 (assay: SPOT array). Details: median of control spots 1161.

SPOT intensity	Binder
58	GATNNAPTLPKRKNP
2	NPLPKEPRLPKRKVA
1	VATSTSPKLPPRGKQ

These binders were tested against Myo3, P36006 (assay: SPOT array). Details: median of control spots 468.

SPOT intensity	Binder
0	GATNNAPTLPKRKNP
7	NPLPKEPRLPKRKVA
0	VATSTSPKLPPRGKQ

The binders below were run against GST (assay: SPOT array). Details: median of control spots 978.

SPOT intensity	Binder
0	GATNNAPTLPKRKNP
2	NPLPKEPRLPKRKVA
0	VATSTSPKLPPRGKQ

What follows are binders tested against T6, Lsb3, P43603 (assay: SPOT array). Details: median of control spots 406.

SPOT intensity	Binder
425	GATNNAPTLPKRKNP
282	NPLPKEPRLPKRKVA
695	VATSTSPKLPPRGKQ

These binders were tested against T7, Abp1, P15891 (assay: SPOT array). Details: median of control spots 935.

SPOT intensity	Binder
36	GATNNAPTLPKRKNP
131	NPLPKEPRLPKRKVA
23	VATSTSPKLPPRGKQ

Each binder was assayed against T8, Boi1, P38041 (assay: SPOT array). Details: median of control spots 1162.

SPOT intensity	Binder
12	GATNNAPTLPKRKNP
4	NPLPKEPRLPKRKVA
0	VATSTSPKLPPRGKQ

What follows are binders tested against T9, Myo5, Q04439 (assay: SPOT array). Details: median of control spots 471.

SPOT intensity	Binder
0	GATNNAPTLPKRKNP
0	NPLPKEPRLPKRKVA
0	VATSTSPKLPPRGKQ

What follows are binders tested against Rvs167, P39743 (assay: SPOT array). Details: median of control spots 2707.
Chain of Rvs167, P39743 (P39743 419-482): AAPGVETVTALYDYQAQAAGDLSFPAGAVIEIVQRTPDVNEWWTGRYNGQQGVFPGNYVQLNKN

SPOT intensity	Binder
2550	GATNNAPTLPKRKNP
200	NPLPKEPRLPKRKVA
4100	VATSTSPKLPPRGKQ

The binders below were run against T10, Bbc1, P47068 (assay: SPOT array). Details: median of control spots 796.

SPOT intensity	Binder
6	GATNNAPTLPKRKNP
221	NPLPKEPRLPKRKVA
23	VATSTSPKLPPRGKQ

These binders were tested against T11, Cyk3, Q07533 (assay: SPOT array). Details: median of control spots 1451.

SPOT intensity	Binder
0	GATNNAPTLPKRKNP
4	NPLPKEPRLPKRKVA
1	VATSTSPKLPPRGKQ

Each binder was assayed against T12, Pin3, Q06449 (assay: SPOT array). Details: median of control spots 2171.

SPOT intensity	Binder
0	GATNNAPTLPKRKNP
10	NPLPKEPRLPKRKVA
15	VATSTSPKLPPRGKQ

The binders below were run against T13, Bzz1-2, P38822 (assay: SPOT array). Details: median of control spots 4538.

SPOT intensity	Binder
0	GATNNAPTLPKRKNP
29	NPLPKEPRLPKRKVA
0	VATSTSPKLPPRGKQ

The binders below were run against T14, Sla1-3, P32790 (assay: SPOT array). Details: median of control spots 5475.

SPOT intensity	Binder
1	GATNNAPTLPKRKNP
45	NPLPKEPRLPKRKVA
13	VATSTSPKLPPRGKQ

Each binder was assayed against Bem1-1, P29366 (assay: SPOT array). Details: median of control spots 4282.
Chain of Bem1-1, P29366 (P29366 55-141): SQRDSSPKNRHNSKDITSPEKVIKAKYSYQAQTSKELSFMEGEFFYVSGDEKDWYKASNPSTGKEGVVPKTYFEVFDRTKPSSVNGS

SPOT intensity	Binder
0	GATNNAPTLPKRKNP
0	NPLPKEPRLPKRKVA
6	VATSTSPKLPPRGKQ

Each binder was assayed against T15, Hse1, P38753 (assay: SPOT array). Details: median of control spots 1727.

SPOT intensity	Binder
1	GATNNAPTLPKRKNP
191	NPLPKEPRLPKRKVA
0	VATSTSPKLPPRGKQ

These binders were tested against T16, Bud14, P27637 (assay: SPOT array). Details: median of control spots 956.

SPOT intensity	Binder
0	GATNNAPTLPKRKNP
26	NPLPKEPRLPKRKVA
0	VATSTSPKLPPRGKQ

The binders below were run against T17, Cdc25, P04821 (assay: SPOT array). Details: median of control spots 969.

SPOT intensity	Binder
1	GATNNAPTLPKRKNP
22	NPLPKEPRLPKRKVA
0	VATSTSPKLPPRGKQ

Each binder was assayed against T18, Lsb1, P53281 (assay: SPOT array). Details: median of control spots 388.

SPOT intensity	Binder
64	GATNNAPTLPKRKNP
19	NPLPKEPRLPKRKVA
561	VATSTSPKLPPRGKQ

What follows are binders tested against T19, Hof1, Q05080 (assay: SPOT array). Details: median of control spots 4086.

SPOT intensity	Binder
0	GATNNAPTLPKRKNP
5	NPLPKEPRLPKRKVA
2	VATSTSPKLPPRGKQ

These binders were tested against T20, Bzz1-1, P38822 (assay: SPOT array). Details: median of control spots 4446.

SPOT intensity	Binder
0	GATNNAPTLPKRKNP
6	NPLPKEPRLPKRKVA
2	VATSTSPKLPPRGKQ

These binders were tested against T21, Fus1, P11710 (assay: SPOT array). Details: median of control spots 1200.

SPOT intensity	Binder
2	GATNNAPTLPKRKNP
2	NPLPKEPRLPKRKVA
0	VATSTSPKLPPRGKQ
